Laboratory results as given in publication PMC11960969, “Mdga2 deficiency leads to an aberrant activation of BDNF/TrkB signaling that underlies autism-relevant synaptic and behavioral changes in mice” (PLOS Biology, 2025).

System: hippocampal proteins
Assay: DIA quantification proteomics, hippocampus of Mdga2+/- vs WT mice
Parameters: species or system mouse
Conditions: S3 Table, downregulated DEPs; for log2FC: Mdga2+/- vs WT mouse hippocampus (HET-HIP-VS-WT-HIP), SE, pvalue and adj_pvalue in own columns c3-c5; for Class: regulation class of the protein, HET-HIP-VS-WT-HIP
Experimental: The hippocampus of 1.5–2-month-old Mdga2^ +/− male mice and their WT littermate controls was collected and sent to the BGI company for DIA quantification proteomics and data analysis. Briefly, samples were lysed and sonicated. After centrifugation, the supernatant was taken for quantification. Equal amounts of proteins (100 μg) per sample were subjected to trypsin enzymatic hydrolysis. After dryness, 10 μg enzymatic peptides per sample were separated by high-pH fractionation into a total of 10 fractions using high-performance liquid chromatography (HPLC) and freeze-dried. Data-dependent acquisition (DDA) fractions and DIA samples were analyzed by nano-LC–MS/MS. DDA data was identified by Andromeda search engine within MaxQuant. Identified results were used by Spectronaut^TM for spectral library construction. For DIA data, Spectronaut^TM used the constructed spectral library information to complete deconvolution and extraction, and used the mProphet algorithm to complete analytical quality control for obtaining reliable quantitative results. The mass spectrometry proteomics data have been deposited to the ProteomeXchange Consortium via the PRIDE [62] partner repository with the dataset identifier PXD050810. DEPs between comparison groups were identified based on the quantitative results, using the fold change >1.1 and p-value <0.05 as the criteria. After retrieval from the UniProtKB database, identified DEPs were processed for GO analysis by using DAVID (https://david.ncifcrf.gov/home.jsp) and Metascape database (https://metascape.org/gp/index.html).

B1: sp¦Q9JK53¦PRELP_MOUSE (protein, UniProt Q9JK53 22-378, looked up)
Prolargin: QPTRPKPGIRRKPKPRPTPRFPQAPEPAEPTDLPPPLPPGPPSVFPDCPRECYCPPDFPSALYCDSRNLRRVPVIPPRIHYLYLQNNFITELPLESFQNATGLRWVNLDNNRIRKVDQRVLGKLPSLAFLYMEKNQLEEVPSALPRNLEQLRLSQNLISRIPPGVFSKLENLLLLDLQHNRLSDGVFKADTFQGLKNLMQLNLAHNILRKMPPKVPQAIHQLYLDSNKIETIPNGYFKDFPNLAFIRMNYNKLSDRGLPKNSFNISNLLVLHLSHNKISNVPAISNKLEHLYLNNNSIEKINGTQICPNNLVAFHDFSSDLENVPHLRYLRLDGNFLKPPIPLDLMMCFRLLQSVVI
log2FC: -1.413 | Class: Down

B2: sp¦Q71FD5¦ZNRF2_MOUSE (protein, UniProt Q71FD5 2-238, looked up)
E3 ubiquitin-protein ligase …: GAKQSGPAANGRTRAYSGSDLPSGTGSGGGGADGARAARFAAPVSGAQQPSASAGAAAAAAAAASAPAAPRSRSLGGAVGSASGGRAAQSAFSIPSAGGGGGPYGSQDSVHSSPEDSVGARDRDRPAGGGPGGPRLVIGSLPAHLSPHLFGGFKCPVCSKFVPSDEMDLHLVMCLTKPRITYNEDVLSKDTGECAICLEELQQGDTIARLPCLCIYHKGCIDEWFEVNRSCPEHPSD
log2FC: -1.4 | Class: Down

B3: sp¦Q9JJR9¦NRIP3_MOUSE (protein, UniProt Q9JJR9 1-240, looked up)
Nuclear receptor-interacting …: MFYSGLLTEGGRKETDMREAASLRQQRRMKQAVQFIHKDSADLLPLDGLKKLGSSKDTQPHNILQRRLMETNLSKLRSTRVPWASKTNKFNQAKSEGLKKCEDEDMILVSCQCAGKDVKALVDTGCQYNLISSACVDRLGLKDHVKSHKHEGEKLSLPRHLKVVGQIEHLMITVGSLRLDCQAAVVDDNEKSLSLGLQTLRSLKCIINLDKHRLIVGKTDKEEIPFVETVSVNDDNTSEA
log2FC: -1.366 | Class: Down

B4: sp¦Q8BTY2¦S4A7_MOUSE (protein, UniProt Q8BTY2 1-1034, looked up)
Sodium bicarbonate …: MEADGAGEQMRPLLTRGPDEEAVVDLGKTSSTVNTKFEKEELESHRAVYVGVHVPFSKESRRRHKHRGHKHHHRRRKDKDSDKEDGRESPSYDTPSQRVQFILGTEDDDEEHIPHDLFTEMDELCYRDGEEYEWKETARWLKFEEDVEDGGDRWSKPYVATLSLHSLFELRSCILNGTVMLDMRASTLDEIADMVLDNMIASGQLDDSIRENVREALLKRHHHQNEKRFTSRIPLVRSFADIGILASPQSAPGNLDNSKSGEMKGNGSGGSRENSTVDFSKVDMNFMRKIPTGAEASNVLVGEVDFLERPIIAFVRLAPAVLLSGLTEVPVPTRFLFLLLGPAGKAPQYHEIGRSIATLMTDEIFHDVAYKAKDRNDLLSGIDEFLDQVTVLPPGEWDPSIRIEPPKSVPSQEKRKIPVFPNGSAAMSVGPPKEDDHHAGPELQRTGRLFGGLILDIKRKAPFFLSDFKDALSLQCLASILFLYCACMSPVITFGGLLGEATEGRISAIESLFGASLTGIAYSLFAGQPLTILGSTGPVLVFEKILFKFCRDYHLSYLSLRTSIGLWTSFLCIVLVATDASSLVCYITRFTEEAFAALICIIFIYEALEKLFHLGEIYAFNMHNNLDELTSYTCVCAEPSNPSNETLELWKRKNITAYSVSWGNLTVSECKTFHGMFVGSACGPHGPYVPDVLFWCVVLFFTTFFLSSFLKQFKTKGYFPTKVRSTISDFAVFLTIVIMVAIDYLVGIPSPKLHVPEKFEPTDPSRGWIISPLGDNPWWTLLIAAVPALLCTILIFMDQQITAVIINRKEHKLKFIPMPVLYGVFLYMGVSSLKGIQFFDRIKLFGMPAKHQPDLIYLRYVPLWKVHVFTVVQLTCLVLLWVIKASAAAVVFPMMVLALVFVRKLMDLCFTKRELSWLDDLMPESKKKKEDDKKKKEKEEAERMLQDDEDTVHLPFERGSLLQIPVKTLKYSIDPSVVNISDEMAKTAQWKALSMNTENAKVTRPNTSPEKPVSVTINFEDEPSKKYMDAETSL
log2FC: -1.445 | Class: Down

B5: sp¦Q80TF3¦PCD19_MOUSE (protein, UniProt Q80TF3 22-1145, looked up)
Protocadherin-19: LINLKYSVEEEQRAGTVIANVAKDAREAGFALDPRQASAFRVVSNSAPHLVDINPSSGLLVTKQKIDRDLLCRQSPKCIISLEVMSSSMEICVIKVEIKDLNDNAPSFPAAQIELEISEAASPGTRIPLDSAYDPDSGSFGVQTYELTPNELFGLEIKTRGDGSRFAELVVEKSLDRETQSHYSFRITALDGGDPPHMGTVGLSIKVTDSNDNNPVFGESTYSVSVPENSPPNTPVIRLNASDPDEGTNGQVVYSFYGYVNDRTRELFQIDPHSGLVTVTGALDYEEGHVYELDVQAKDLGPNSIPAHCKVTVSVLDTNDNPPIINLLSVNSELVEVSESAPPGYVIALVRVSDRDSGLNGRVQCRLLGNVPFRLQEYESFSTILVDGRLDREQHDQYNLTIQARDSGVPMLQSAKSFTVRITDENDNHPHFSKPYYQVIVQENNTPGAYLLSVSARDPDMGLNGSVSYQIVPSQVRDMPVFTYVSINPNSGDIYALRSFNHEQTKAFEFKVLAKDGGLPSLQSNATVRVIILDVNDNTPVITAPPLINGTAEVYIPRNSGIGYLVTVVKADDYDEGENGRVTYDMTEGDRGFFEIDQVNGEVRTTRTFNENSKPSYELIVVAHDHGKTSLSASALVLIYLSPALDAQESMGSVNLSLIFIIALGSIAGILFVTMIFVAIKCKRDNKEIRTYNCSNCLTITCLLGCFIKGQNSKCLHCISVSPNSEEQDKKAEEKVSLRGKRIAEYSYGHQKKSSKKKKISKNDIRLVPRDVEETDKMNVVSCSSLTSSLNYFDYHQQTLPLGCRRSESTFLNVENQNTRNTTASHIYHHSFNSQGPQQPDLIINGVPLPETENYSFDSNYVNSRAHLIKSSSTFKDLEGNSLKDSGHEESDQTDSEHDVQRSLYCDTAVNDVLNTSVTSMGSQMPDHDQNEGFHCREECRILGHSDRCWMPRNPMPTRSKSPEHVRNIIALSIEATAADVEAYDDCGPTKRTFATFGKDVSSHRAEERPILKGKRTVDVTICSPKVNSAIREAGNGCEAISPVTSPLHLKSPLPTKPSISYTVALAPPAHDLEHHANSGASRPSEAEPRGADNEKVMHEVNPIRKDGRDKESPSVKRLKDIVL
log2FC: -1.393 | Class: Down

B6: sp¦A3KGB4¦TBC8B_MOUSE (protein, UniProt A3KGB4 1-1114, looked up)
TBC1 domain family member 8B: MWLKPEEVLLKNALKLWLMERSNEYFVLQRRRGYGEEGGGGLTGLLVGTLDSVLDSTAKVAPFRILHQTPDSQVYLSIACGANREEITKHWDWLEQNIMKTLSVFDSNEDITNFVQGKIRGLIAEEGKQSFAKEDDPEKFREALLKFEKSFGLPEQEKLVTYYSCSYWRGRVPCQGWLYLSTNFLSFYSFLLGSEIKLIISWDAISKLEKTSTVILTESIHVCSQGENHYFSMFLHINETYLLMEQLANYAIKRLFDKETFDNDPVLDDPLQITKRGLEYRAHSEQFKAFFRLPKEETLKEVHECFLWVPFSHFSSHGKMCISENYICFASQDGNLCSVIIPLREVLAIDKTDDSNRSVIISIKGKTAFRFSELKDFEQLVAKLRLKCRAASTQDDVSTEVAVSSDSTGPSENFEEQPLTCPKECSKTVNTEALMTVFHPQNLENLDSKMLKEKMKEQSWNILFSECGRGVSMFRTKKTRDLVVRGIPETLRGELWMLFSGAVNDMATNPGYYAEVVEQSLGTSNLATEEIERDLRRSLPEHPAFQSDTGISALRRVLTAYAYRNPKIGYCQAMNILTSVLLLYAKEEEAFWLLVAVCERMLPDYFNRRIIGALVDQAVFEELIRDHLPQLTDHMTDMTFFSSVSLSWFLTLFISVLPIESAVNVVDCFFYDGIKAILQLGLAILDYNLDKLLTCKDDAEAVTALNRFFDNVINKDSPLPSNVQQGSNISNEKSDHTKVDITDLIKESNEKYGSIRYEDIHSMRCRNRLYVIQTLEETTKQNVLRVVSQDVKMSLQELDELYVIFKKELFISCYWYLSCPGLKHHDPSLPYLEQYQIDCQQFRVLYHLLSPWAHSANRDSLALWTFRLLDENSDCLINFKEFSSAIDIMYNGSFTDKLKLLFKLHIPPAYTEVMSKTSSKGDELSTEELLYFSQLQVSKPADEKETESGRNSPEKGKGKIDIQAYLSQWQDELLKKEETIKDLPRMNQSQFIQFSKTLYNLFHEDPEEESLYQAIAIVTNLLLRMEEVGRKLHSPASSASTARDSGPSEGNAESSVKKDLPSPREEHQWSFAFEQILASLLNEPALVRFFERPLDLKAKLENAKSSQLRSRTKM
log2FC: -1.359 | Class: Down

B7: sp¦Q80TS7¦DEND_MOUSE (protein, UniProt Q80TS7 1-710, looked up)
Dendrin: MLDGPLFSEGPDSPRELQDEESGSCLWVQKSKLLVIEVKTISCHYSRRAPSRQSMDIQASYWARGPQSRTCRLRPGSPEPPPRRPWASRVLQEATNWRAGPPAEVRAREQEKRKAASQEREAKETERKRRKAGGARRSPLGQPRPEPRNALRAAQPTGFPVFSRPERFGQVGRAPRPSVLPQGDPGVAWAGPWGGRRPGPPSYEAHLLLRGSAGTAPRRRWDRPPPYVAPPSYEGPHRTLGTKRGPELSRAPTSSAPVPATTRTEGGRTKKRLDPRIYRDVLGAWGLRQGRGLLGGAPGCTAARARPESCKGAIEKSSGLVAAGLNSAGDSHSQGKTTGGPGTDAALSRSAISSPPRPVPRSRQHLRGSRKGKEGSEQIWLPTCWLASPKKPPVRHSQTLPRPWAPGGTGWKESLGQREGAEHETLEVWKVTRRAHTLPRISRGPAGREGIFVIDATCVVIKSQYVPTPRTQQGQLVPSGESCSVSDSLSQPKPCHEEEGEGAAANPSVCQKRLLSSRVLNQPSEGRECEAEVGQQGDSSLEERSSSGLGFPVGEVNPRDAPTQPGSQEHPTLGPAAPVCAGSLKGSEAAGVPRRAGGGWARTPGPYAGALREAVSRIRRHTAPDSDSDEAEDLSVHSGSSDGSDTDAPGASWRNERTLPALGNTRPREGGKTAGLSDSIREIVDVISQTEEGFIREDTRKTPQGNRERE
log2FC: -1.4022 | Class: Down
